Experimental findings from patent US20200024360A1 (Janssen / Centocor, published 2020) are described below.

Experiment [1] has as its target T1, recombinant chimpanzee PSMA extracellular domain (ECD) protein (Pan troglodytes, UniProt Q04609 44-750 (human entry)).
T1 construct: also called Chimp PSMA ECD; PSMG8
T1 chain: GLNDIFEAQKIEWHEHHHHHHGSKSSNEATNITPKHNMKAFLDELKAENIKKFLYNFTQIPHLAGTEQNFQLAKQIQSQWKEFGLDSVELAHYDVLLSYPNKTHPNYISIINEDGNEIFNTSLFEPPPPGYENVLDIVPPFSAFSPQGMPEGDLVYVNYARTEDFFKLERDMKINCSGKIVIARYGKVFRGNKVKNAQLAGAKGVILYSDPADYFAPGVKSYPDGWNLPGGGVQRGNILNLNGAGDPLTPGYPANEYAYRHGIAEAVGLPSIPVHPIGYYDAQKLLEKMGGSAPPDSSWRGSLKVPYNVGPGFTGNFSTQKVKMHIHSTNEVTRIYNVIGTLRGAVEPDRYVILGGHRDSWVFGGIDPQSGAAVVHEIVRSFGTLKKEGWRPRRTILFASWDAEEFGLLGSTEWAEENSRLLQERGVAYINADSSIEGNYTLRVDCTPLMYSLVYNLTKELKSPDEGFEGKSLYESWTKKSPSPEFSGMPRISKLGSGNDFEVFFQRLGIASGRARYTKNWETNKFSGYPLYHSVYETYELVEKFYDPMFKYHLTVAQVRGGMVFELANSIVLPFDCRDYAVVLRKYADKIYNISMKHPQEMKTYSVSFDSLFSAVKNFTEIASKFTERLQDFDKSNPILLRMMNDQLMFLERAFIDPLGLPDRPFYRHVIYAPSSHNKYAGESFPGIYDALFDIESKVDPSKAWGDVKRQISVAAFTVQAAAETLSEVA
Put plainly: SPR Biacore 3000, bsAb captured by anti-Fc. On the procedure:
Binding to recombinant Chimp PSMA by Biacore. The Affinity measurements using Surface Plasmon Resonance (SPR) were performed using a Biacore 3000 optical biosensor (Biacore-GE Healthcare). A biosensor surface was prepared by coupling anti-Human IgG Fc (Jackson ImmunoResearch Laboratory, cat #109-005-098) to the carboxymethylated dextran surface of a CM-5 chip (Biacore, cat # BR-1000-12) using the manufacturer instructions for amine-coupling chemistry. Approximately 16,000 RU (response units) of anti-Human IgG Fc antibodies were immobilized in each of four flow cells. The kinetic experiments were performed at 25° C. in running buffer (DPBS+0.03% P20+[…]). Dilutions of antigen (recombinant Chimp PSMA, concentration either from 1.2-300 nM or 3.7-900 nM in a 3-fold serial dilution) were prepared in running buffer. About 100 RU of PSMA×CD3 bispecific mAbs were captured on flow cell 2 to 4 of the sensor chip. Flow cell 1 was used as reference surface. Capture of PSMA×CD3 bispecific mAb was followed by a 3 or 5-minute injection (association phase) of antigen (recombinant Chimp PSMA) at 50 μl/min, followed by 15 or 20 minutes of buffer flow (dissociation phase). The chip surface was regenerated by two 18-second injections of 100 mM Phosphoric acid (H₃PO₄, Sigma, cat #7961) at 50 μl/min.
The collected data were processed using BIAevaluation software (Biacore). First, double reference subtraction of the data was performed by subtracting the curves generated by buffer injection from the reference-subtracted curves for analyte injections. Then kinetic analysis of the data was performed using a Langmuir 1:1 binding model with global fit. The result for each PSMA×CD3 bispecific mAb was reported in the format of kₐ (On-rate), kd (Off-rate) and KD (Equilibrium dissociation constant).

The target of experiment [2] is T2, human PSMA (prostate specific membrane antigen), full length (human, UniProt Q04609 1-750).
T2 construct: On LNCaP or C4-2B cells (endogenous) or transduced HEK293F cells; also called FOLH1_HUMAN; hPSMA
T2 sequence (Q04609 whole entry): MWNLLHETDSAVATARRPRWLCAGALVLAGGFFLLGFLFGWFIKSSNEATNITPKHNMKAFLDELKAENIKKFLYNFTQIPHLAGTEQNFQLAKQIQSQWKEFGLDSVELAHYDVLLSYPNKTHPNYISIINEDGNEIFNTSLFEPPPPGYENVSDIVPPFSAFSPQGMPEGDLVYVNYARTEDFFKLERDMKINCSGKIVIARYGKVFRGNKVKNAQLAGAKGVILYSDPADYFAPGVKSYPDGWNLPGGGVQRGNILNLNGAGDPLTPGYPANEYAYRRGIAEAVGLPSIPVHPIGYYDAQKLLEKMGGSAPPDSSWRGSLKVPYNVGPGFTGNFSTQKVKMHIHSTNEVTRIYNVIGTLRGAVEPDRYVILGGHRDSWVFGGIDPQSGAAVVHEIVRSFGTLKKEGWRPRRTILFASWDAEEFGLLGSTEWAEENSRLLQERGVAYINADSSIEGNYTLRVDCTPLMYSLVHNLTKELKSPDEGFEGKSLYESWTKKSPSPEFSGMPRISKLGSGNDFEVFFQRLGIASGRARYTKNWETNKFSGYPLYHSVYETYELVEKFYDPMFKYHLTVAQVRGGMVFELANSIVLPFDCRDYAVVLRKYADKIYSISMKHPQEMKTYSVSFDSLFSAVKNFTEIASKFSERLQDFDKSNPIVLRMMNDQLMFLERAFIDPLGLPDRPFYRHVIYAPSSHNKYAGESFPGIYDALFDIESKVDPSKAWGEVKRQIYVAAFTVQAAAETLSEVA
Put plainly: FACS, whole cell binding, LNCaP. As for the experimental part: PSMA×CD3 bispecific antibodies were tested for binding to PSMA positive cell lines LNCAP, human PSMA-HEK, Chimpanzee-PSMA-HEK and Cynomolgous monkey PSMA-HEK. To assess the binding capabilities of the PSMA bispecific antibodies, the cell-binding assay was utilized (described previously). Briefly, PSMA expressing tumor cells are bound by bispecific antibodies at known concentrations and the bound antibody is detected by an anti-human kappa light chain PE conjugated detection reagent (Invitrogen). The Mean Fluorescents Intensity (MFI) is the measure of bound bispecific antibody. The MFI is converted to a relative EC₅₀. EC₅₀ is a commonly used dose-response curve, where the half maximal effective concentration or the EC₅₀ point is defined as the inflection point of the curve. EC₅₀ s were determined by measuring cell bound bispecific and known concentrations. […] The dose response curves were then diluted down to that of background or no bispecific binding. The inflection point of this curve reflects the EC₅₀ point. The calculated EC₅₀ is determined by taking the ug/ml amount of bispecific antibody at the EC₅₀ point and converting it to a molarity value based on the MW of the bispecific antibody. Bispecific antibodies were normalized for protein concentration and then incubated with the same number of cells expressing either human or cyno PSMA. The MFI at each concentration was collected by flow cytometry and plotted as a function of concentration. Data was transformed via log 10 and then plotted. Nonlinear regression of binding curves was done to determine EC₅₀ s. These relative values were used for ranking PSMA binding to target cells.
A general note: In flow cytometry, cells or beads pass a laser one at a time.

B1: PS3B27 (bispecific antibody, human IgG4 S228P, kappa, lambda, F234A L235A)
heavy 1: not shown
light 1: not shown
heavy 2: EVQLVESGGGLVQPGGSLRLSCAASGFTFNTYAMNWVRQAPGKGLEWVARIRSKYNNYATYYAASVKGRFTISRDDSKNSLYLQMNSLKTEDTAVYYCARHGNFGNSYVSWFAYWGQGTLVTVSSASTKGPSVFPLAPCSRSTSESTAALGCLVKDYFPEPVTVSWNSGALTSGVHTFPAVLQSSGLYSLSSVVTVPSSSLGTKTYTCNVDHKPSNTKVDKRVESKYGPPCPPCPAPEAAGGPSVFLFPPKPKDTLMISRTPEVTCVVVDVSQEDPEVQFNWYVDGVEVHNAKTKPREEQFNSTYRVVSVLTVLHQDWLNGKEYKCKVSNKGLPSSIEKTISKAKGQPREPQVYTLPPSQEEMTKNQVSLTCLVKGFYPSDIAVEWESNGQPENNYKTTPPVLDSDGSFLLYSKLTVDKSRWQEGNVFSCSVMHEALHNHYTQKSLSLSLGK
light 2: QTVVTQEPSLTVSPGGTVTLTCRSSTGAVTTSNYANWVQQKPGQAPRGLIGGTNKRAPGTPARFSGSLLGGKAALTLSGVQPEDEAEYYCALWYSNLWVFGGGTKLTVLGQPKAAPSVTLFPPSSEELQANKATLVCLISDFYPGAVTVAWKADSSPVKAGVETTTPSKQSNNKYAASSYLSLTPEQWKSHRSYSCQVTHEGSTVEKTVAPTECS
notes: IgG4 PAA; PSMA arm chains first, then CD3 arm (F405L, R409K); also called PSMB127 x CD3B219; PS2B27
As usually defined, the Kd is the concentration at which binding is half-saturated. For orientation: koff means the first-order rate constant of dissociation. In general, kon refers to the second-order rate constant of association. In general, EC50 refers to the concentration giving half of the maximal effect. For B1, in experiment [1], the Kd was determined as 22.4 nM, the off-rate constant (koff) is 0.002 s⁻¹ and the kon was determined as 89000 M⁻¹ s⁻¹. The same molecule had an EC50 in experiment [2] of 2.07 µg/mL.

B2: PS3B22 (bispecific antibody, human IgG4 S228P, kappa, lambda, F234A L235A)
heavy 1: not shown
light 1: DIQMTQSPSSLSASVGDRVTITCRASQSIDRWLNWYQQKPGKAPKLLIYAASSLQSGVPSRFSGSGSGTDFTLTISSLQPEDFATYYCQQSPRYPLTFGQGTKVEIKRTVAAPSVFIFPPSDEQLKSGTASVVCLLNNFYPREAKVQWKVDNALQSGNSQESVTEQDSKDSTYSLSSTLTLSKADYEKHKVYACEVTHQGLSSPVTKSFNRGEC
heavy 2: EVQLVESGGGLVQPGGSLRLSCAASGFTFNTYAMNWVRQAPGKGLEWVARIRSKYNNYATYYAASVKGRFTISRDDSKNSLYLQMNSLKTEDTAVYYCARHGNFGNSYVSWFAYWGQGTLVTVSSASTKGPSVFPLAPCSRSTSESTAALGCLVKDYFPEPVTVSWNSGALTSGVHTFPAVLQSSGLYSLSSVVTVPSSSLGTKTYTCNVDHKPSNTKVDKRVESKYGPPCPPCPAPEAAGGPSVFLFPPKPKDTLMISRTPEVTCVVVDVSQEDPEVQFNWYVDGVEVHNAKTKPREEQFNSTYRVVSVLTVLHQDWLNGKEYKCKVSNKGLPSSIEKTISKAKGQPREPQVYTLPPSQEEMTKNQVSLTCLVKGFYPSDIAVEWESNGQPENNYKTTPPVLDSDGSFLLYSKLTVDKSRWQEGNVFSCSVMHEALHNHYTQKSLSLSLGK
light 2: QTVVTQEPSLTVSPGGTVTLTCRSSTGAVTTSNYANWVQQKPGQAPRGLIGGTNKRAPGTPARFSGSLLGGKAALTLSGVQPEDEAEYYCALWYSNLWVFGGGTKLTVLGQPKAAPSVTLFPPSSEELQANKATLVCLISDFYPGAVTVAWKADSSPVKAGVETTTPSKQSNNKYAASSYLSLTPEQWKSHRSYSCQVTHEGSTVEKTVAPTECS
notes: IgG4 PAA; PSMA arm chains first, then CD3 arm (F405L, R409K); also called PSMB122 x CD3B219; PSB22
For B2, in experiment [1], the Kd came to 60.4 nM, the koff came to 0.001 s⁻¹ and the on-rate (kon) amounted to 16600 M⁻¹ s⁻¹. The same molecule showed an EC50 in experiment [2] of 2.6 µg/mL.

B3: PS3B30 (bispecific antibody, human IgG4 S228P, kappa, lambda, F234A L235A)
heavy 1: not shown
light 1: not shown
heavy 2: EVQLVESGGGLVQPGGSLRLSCAASGFTFNTYAMNWVRQAPGKGLEWVARIRSKYNNYATYYAASVKGRFTISRDDSKNSLYLQMNSLKTEDTAVYYCARHGNFGNSYVSWFAYWGQGTLVTVSSASTKGPSVFPLAPCSRSTSESTAALGCLVKDYFPEPVTVSWNSGALTSGVHTFPAVLQSSGLYSLSSVVTVPSSSLGTKTYTCNVDHKPSNTKVDKRVESKYGPPCPPCPAPEAAGGPSVFLFPPKPKDTLMISRTPEVTCVVVDVSQEDPEVQFNWYVDGVEVHNAKTKPREEQFNSTYRVVSVLTVLHQDWLNGKEYKCKVSNKGLPSSIEKTISKAKGQPREPQVYTLPPSQEEMTKNQVSLTCLVKGFYPSDIAVEWESNGQPENNYKTTPPVLDSDGSFLLYSKLTVDKSRWQEGNVFSCSVMHEALHNHYTQKSLSLSLGK
light 2: QTVVTQEPSLTVSPGGTVTLTCRSSTGAVTTSNYANWVQQKPGQAPRGLIGGTNKRAPGTPARFSGSLLGGKAALTLSGVQPEDEAEYYCALWYSNLWVFGGGTKLTVLGQPKAAPSVTLFPPSSEELQANKATLVCLISDFYPGAVTVAWKADSSPVKAGVETTTPSKQSNNKYAASSYLSLTPEQWKSHRSYSCQVTHEGSTVEKTVAPTECS
notes: IgG4 PAA; PSMA arm chains first, then CD3 arm (F405L, R409K); also called PSMB130 x CD3B219
For the molecule B3, in experiment [1], the Kd stood at 52.3 nM, the koff was 0.00182 s⁻¹ and the association rate constant (kon) is 34800 M⁻¹ s⁻¹. The same molecule returned an EC50 in experiment [2] of 1.2 µg/mL.

B4: PS3B23 (bispecific antibody, human IgG4 S228P, kappa, lambda, F234A L235A)
heavy 1: not shown
light 1: not shown
heavy 2: EVQLVESGGGLVQPGGSLRLSCAASGFTFNTYAMNWVRQAPGKGLEWVARIRSKYNNYATYYAASVKGRFTISRDDSKNSLYLQMNSLKTEDTAVYYCARHGNFGNSYVSWFAYWGQGTLVTVSSASTKGPSVFPLAPCSRSTSESTAALGCLVKDYFPEPVTVSWNSGALTSGVHTFPAVLQSSGLYSLSSVVTVPSSSLGTKTYTCNVDHKPSNTKVDKRVESKYGPPCPPCPAPEAAGGPSVFLFPPKPKDTLMISRTPEVTCVVVDVSQEDPEVQFNWYVDGVEVHNAKTKPREEQFNSTYRVVSVLTVLHQDWLNGKEYKCKVSNKGLPSSIEKTISKAKGQPREPQVYTLPPSQEEMTKNQVSLTCLVKGFYPSDIAVEWESNGQPENNYKTTPPVLDSDGSFLLYSKLTVDKSRWQEGNVFSCSVMHEALHNHYTQKSLSLSLGK
light 2: QTVVTQEPSLTVSPGGTVTLTCRSSTGAVTTSNYANWVQQKPGQAPRGLIGGTNKRAPGTPARFSGSLLGGKAALTLSGVQPEDEAEYYCALWYSNLWVFGGGTKLTVLGQPKAAPSVTLFPPSSEELQANKATLVCLISDFYPGAVTVAWKADSSPVKAGVETTTPSKQSNNKYAASSYLSLTPEQWKSHRSYSCQVTHEGSTVEKTVAPTECS
notes: IgG4 PAA; PSMA arm chains first, then CD3 arm (F405L, R409K); also called PSMB123 x CD3B219
B4: in experiment [1], the Kd was 9.1 nM, the koff stood at 0.00122 s⁻¹ and the kon came to 134000 M⁻¹ s⁻¹.

B5: PS3B25 (bispecific antibody, human IgG4 S228P, kappa, lambda, F234A L235A)
heavy 1: not shown
light 1: not shown
heavy 2: EVQLVESGGGLVQPGGSLRLSCAASGFTFNTYAMNWVRQAPGKGLEWVARIRSKYNNYATYYAASVKGRFTISRDDSKNSLYLQMNSLKTEDTAVYYCARHGNFGNSYVSWFAYWGQGTLVTVSSASTKGPSVFPLAPCSRSTSESTAALGCLVKDYFPEPVTVSWNSGALTSGVHTFPAVLQSSGLYSLSSVVTVPSSSLGTKTYTCNVDHKPSNTKVDKRVESKYGPPCPPCPAPEAAGGPSVFLFPPKPKDTLMISRTPEVTCVVVDVSQEDPEVQFNWYVDGVEVHNAKTKPREEQFNSTYRVVSVLTVLHQDWLNGKEYKCKVSNKGLPSSIEKTISKAKGQPREPQVYTLPPSQEEMTKNQVSLTCLVKGFYPSDIAVEWESNGQPENNYKTTPPVLDSDGSFLLYSKLTVDKSRWQEGNVFSCSVMHEALHNHYTQKSLSLSLGK
light 2: QTVVTQEPSLTVSPGGTVTLTCRSSTGAVTTSNYANWVQQKPGQAPRGLIGGTNKRAPGTPARFSGSLLGGKAALTLSGVQPEDEAEYYCALWYSNLWVFGGGTKLTVLGQPKAAPSVTLFPPSSEELQANKATLVCLISDFYPGAVTVAWKADSSPVKAGVETTTPSKQSNNKYAASSYLSLTPEQWKSHRSYSCQVTHEGSTVEKTVAPTECS
notes: IgG4 PAA; also called PSMB87 x CD3B219
On to B5, for which, in experiment [1], the Kd stood at 16.4 nM, the koff was determined as 0.00108 s⁻¹ and the kon amounted to 65900 M⁻¹ s⁻¹.
